From US11180770B2, “HPPD variants and methods of use” (BASF Agricultural Solutions Seed US LLC, priority 2017, dated 2021)
Residue numbers refer to the chain shown, from its start.

B1: SEQ ID NO: 47: mutant PfHPPD: 268A 270N 335P 336H 337S 340V 344Q 345M (protein)
chain: MADLYENPMGLMGFEFIEFASPTPGTLEPIFEIMGFTKVATHRSKNVHLYRQGEINLILNNEPNSIASYFAAEHGPSVCGMAFRVKDSQKAYNRALELGAQPIHIDTGPMELNLPAIKGIGGAPLYLIDRFGEGSSIYDIDFVYLEGVERNPVGAGLKVIDHLTHNVYRGRMVYWANFYEKLFNFREARYFDIKGEYTGLTSKAMSAPDGMIRIPLNEESSKGAGQIEEFLMQFNGEGIQHVAFLTDDLVKTWDALKKIGMRFMTAPADNYYEMLEGRLPDHGEPVDQLQARGILLDGSSVEGDKRLLLQIFSETLMGPVFFEFIQRKGDDGFGPHSFKVLFEQMERDQVRRGVLTAD
modifications: mutant HPPD polypeptide
notes: mutant PfHPPD: 268A 270N 335P 336H 337S 340V 344Q 345M
B2: 32 (protein)
chain: B1 chain with A268P, N270T, Q344S, M345V
modifications: mutant HPPD polypeptide
B3: 40 (protein)
chain: B1 chain with A268G, N270E, H336D, Q344S, M345V
modifications: mutant HPPD polypeptide
B4: 37 (protein)
chain: B1 chain with A268S, Q344S, M345V
modifications: mutant HPPD polypeptide
B5: 35 (protein)
chain: B1 chain with A268P, Q344S, M345V
modifications: mutant HPPD polypeptide
B6: 45 (protein)
chain: B1 chain with M345V
modifications: mutant HPPD polypeptide
B7: 33 (protein)
chain: B1 chain with Q344S, M345V
modifications: mutant HPPD polypeptide
B8: 43 (protein)
chain: B1 chain with N270E, M345V
modifications: mutant HPPD polypeptide
B9: 30 (protein)
chain: B1 chain with N270T, Q344S, M345V
modifications: mutant HPPD polypeptide
B10: 44 (protein)
chain: B1 chain with A268G, N270E, M345V
modifications: mutant HPPD polypeptide
B11: 38 (protein)
chain: B1 chain with N270E, Q344S, M345V
modifications: mutant HPPD polypeptide
B12: SEQ ID NO: 2: prior art mutant HPPD polypeptide (WO2014/043435): 335P 336W 339A 340Q (protein)
chain: B1 chain with A268P, N270T, H336W, S337N, K339A, V340Q, Q344S, M345I
modifications: mutant HPPD polypeptide
notes: prior art mutant HPPD polypeptide (WO2014/043435): 335P 336W 339A 340Q
B13: 34 (protein)
chain: B1 chain with A268G, Q344S, M345V
modifications: mutant HPPD polypeptide
B14: 36 (protein)
chain: B1 chain with A268R, Q344S, M345V
modifications: mutant HPPD polypeptide
B15: SEQ ID NO: 66: mutant PfHPPD: 213K 268A 270S 335P 336H 337S 340V 344Q 345M (protein)
chain: B1 chain with R213K, N270S
modifications: mutant HPPD polypeptide
notes: mutant PfHPPD: 213K 268A 270S 335P 336H 337S 340V 344Q 345M
B16: 41 (protein)
chain: B1 chain with A268R, N270E, Q344S, M345V
modifications: mutant HPPD polypeptide
B17: 42 (protein)
chain: B1 chain with A268S, N270E, Q344S, M345V
modifications: mutant HPPD polypeptide
B18: 39 (protein)
chain: B1 chain with A268G, N270E, Q344S, M345V
modifications: mutant HPPD polypeptide
B19: 29 (protein)
chain: B1 chain with A268P, Q344S, M345I
modifications: mutant HPPD polypeptide
B20: 31 (protein)
chain: B1 chain with A268G, N270T, Q344S, M345V
modifications: mutant HPPD polypeptide

How the values were obtained:
T0 soybean plants = test: greenhouse spray test, leaf area damage score; format: in vivo; conditions: for leaf area damage score, 25th percentile / leaf area damage score, 75th percentile / leaf area damage score, 90th percentile / leaf area damage score, Median: transgenic soybean T0 events, five days after Cmpd. 1 at 300 g AI/ha; for leaf area damage score, 25th percentile: scale 0 (no damage) to 100 (complete bleaching)
Description: Tolerant green shoots were transferred to rooting media or grafted. Rooted plantlets were transferred to the greenhouse after an acclimation period. Plants containing the transgene were then sprayed with HPPD inhibitor herbicides, as for example with mesotrione at a rate of 300-600 g AI/ha, or with Cmpd. 1 (2-chloro-3-(methylsulfanyl)-N-(1-methyl-1H-tetrazol-5-yl)-4-(trifluoromethyl)-benzamide) at a rate of 150 g-300 g AI/ha supplemented with ammonium sulfate and methyl ester rapeseed oil. Five to ten days after the application, the symptoms due to the application of the herbicide were evaluated and compared to the symptoms observed on wild-type plants under the same conditions. For example, T0 soybean plants having a “plant expression cassette”, which includes an HPPD inhibitor tolerant HPPD polypeptide of the present invention, were tested towards the tolerance of Cmpd. 1. Prior greenhouse trials with the transgenic plants, soybean transformants were routinely analyzed for the expression and presence of the transgenes using the ELISA protein detection method (see detailed description under item D and H). Only plants recovering in the selection media and having a detectable HPPD transgene protein expression were used for the herbicide tolerance analysis. A DeVries Tracker Sprayer was calibrated prior to each spraying. The chemical formulation used for Cmpd. 1 was supplemented with ammonium sulfate and methylated rape seed oil. Spray tests were conducted with a concentration, which equals to 300 grams AI per hectare (300 g AI/ha).
In greenhouse trials, independent T0 soybean events containing an exemplary mutant HPPD polypeptide were sprayed with the HPPD inhibitor herbicide Cmpd. 1 (2-chloro-3-(methylsulfanyl)-N-(1-methyl-1H-tetrazol-5-yl)-4-(trifluoromethyl)benzamide) at the rate of 300 grams AI/ha, supplemented with ammonium sulfate and methyl ester rapeseed oil. Five days after the application, the leaf damaged area due to the HPPD inhibitor herbicide is scored in a scale from 0 (no damage) to 100 (complete bleaching). Under those conditions, the wild-type plants were completely bleached and their damage scores were in the 95-100 range.
Table 5 presents the distribution of the HPPD inhibitor herbicide damage score data as percentile for exemplary mutant HPPD inhibitor herbicide tolerant polypeptides (SEQ ID NOs). The percentiles normalize ranks of the damage score from an individual plant in a population. […] The median is the 50th percentile. Half the values had higher damage scores; half had lower damage scores. The value of the 75th and 90th percentile is the damage score where 75% and 90% of the soybean events had lower damage scores, respectively. The difference between the 75th and 25th percentile is called the interquartile range and a marker to quantify scattering in the population. All constructs had only one single cassette insertion in the soybean genome.

HPPD polypeptides = test: coupled HPPD activity assay: turnover and residual turnover in crude extracts; format: biochemical, Pseudomonas fluorescens; conditions: for Turnover: absence of Cmpd. 1, kinetic changes in absorbance (OD) at 320 nm, 30 min; for Turnover / Residual turnover: high substrate concentration; for Residual turnover: presence of 100 μM Cmpd. 1, changes in absorbance (OD) at 320 nm; for turnover / residual turnover in the presence of Cmpd. 1 compared with a reference HPPD polypeptide, in words: comparison with the reference or parent polypeptide; for Residual turnover [%]: 100 μM Cmpd. 1, signal change with inhibitor divided by signal change without inhibitor

Row | Molecule | Turnover (HPPD polypeptides) | Residual turnover (HPPD polypeptides) | Residual turnover [%] (HPPD polypeptides) | also measured
1 | CSc1c(C(F)(F)F)ccc(C(=O)Nc2nnnn2C)c1Cl [Cmpd. 1, 2-chloro-3-(methylsulfanyl)-N-(1-methyl-1H-tetrazol-5-yl)-4-(trifluoromethyl)benzamide, reference compound] | 0.203 | 0.021 | – | leaf damage score of wild-type plants (T0 soybean plants; wild-type soybean plants, 300 grams AI/ha, five days after application, scale 0-100): 95-100
2 | B1 | – | – | – | leaf area damage score, 25th percentile (T0 soybean plants): 5.0; leaf area damage score, 75th percentile (T0 soybean plants; scale 0-100): 15.0; leaf area damage score, 90th percentile (T0 soybean plants; scale 0-100): 51.0; leaf area damage score, Median (T0 soybean plants; scale 0-100): 15.0; turnover / residual turnover in the presence of Cmpd. 1 compared with a reference HPPD polypeptide, in words (HPPD polypeptides): significant increase in the residual turnover
3 | B2 | 0.326 | 0.128 | 39 | –
4 | B3 | 0.134 | 0.073 | 54 | –
5 | B4 | 0.096 | 0.048 | 50 | –
6 | B5 | 0.036 | 0.023 | – | –
7 | B6 | 0.214 | 0.121 | 57 | –
8 | B7 | 0.189 | 0.087 | 46 | –
9 | B8 | 0.190 | 0.110 | 58 | –
10 | B9 | 0.311 | 0.149 | 48 | –
11 | B10 | 0.036 | – | – | –
12 | B11 | 0.286 | 0.129 | 45 | –
13 | B12 | – | – | – | leaf area damage score, 25th percentile (T0 soybean plants): 15.0; leaf area damage score, 75th percentile (T0 soybean plants; scale 0-100): 45.0; leaf area damage score, 90th percentile (T0 soybean plants; scale 0-100): 87.0; leaf area damage score, Median (T0 soybean plants; scale 0-100): 20.0
14 | B13 | 0.243 | 0.113 | 47 | –
15 | B14 | 0.108 | 0.066 | 61 | –
16 | B15 | – | – | – | leaf area damage score, 25th percentile (T0 soybean plants): 5.0; leaf area damage score, 75th percentile (T0 soybean plants; scale 0-100): 25.0; leaf area damage score, 90th percentile (T0 soybean plants; scale 0-100): 41.0; leaf area damage score, Median (T0 soybean plants; scale 0-100): 10.0; turnover / residual turnover in the presence of Cmpd. 1 compared with a reference HPPD polypeptide, in words (HPPD polypeptides): increase significantly the turnover and the residual turnover
17 | B16 | 0.280 | 0.105 | 38 | –
18 | B17 | 0.278 | 0.111 | 40 | –
19 | B18 | 0.244 | 0.097 | 40 | –
20 | B19 | 0.289 | 0.084 | 29 | –
21 | B20 | 0.268 | 0.098 | 37 | –
